Laboratory results published in doi:10.1101/2021.12.25.474155.

Molecular target: NCAP (SARS-CoV-2) (UniProt P0DTC9)
Test: EMSA

GGCUGUGUGGCUGUCACUCGGCUGCAUGCUUAGUGCACUCACGCAGUAUAAUUAAUAACUAAUUACUGUCGUUGACAGGACACGAGUAACUCGUCUAUCUUCUGCAGGCUGCUUACGGUUUCGUCCGUGUUGCAGCCGAUCAUCAGCACAUCUAGGUUUCGUCCGGGUGUGACCGAAAGGUAAGAUGGAGAGCCUUGUCCCUGGUUUCAACGAGAAAACACACGUCCAACUCAGUUUGCCUGUUUUACAGGUUCGCGACGUGCUCGUACGUGGCUUUGGAGACUCCGUGGAGGAGGUCUUAUCAGAGGCACGUCAACAUCUUAAA [F323]
Kd: 0.029 µM

GGAUUAAAGGUUUAUACCUUCCCAGGUAACAAACCAACCAACUUUCGAUCUCUUGUAGAUCUGUUCUCUAAACGAACUUUAAAAUCUGUGUGGCUGUCACUCGGCUGCAUGCUUAGUGCACUCACGCAGUAUAAUUAAUAACUAAUUACUGUCGUUGACAGGACACGAGUAACUCGUCUAUCUUCUGCAGGCUGCUUACGGUUUCGUCCGUGUUGCAGCCGAUCAUCAGCACAUCUAGGUUUCGUCCGGGUGUGACCGAAAGGUAAGAUGGAGAGCCUUGUCCCUGGUUUCAACGAGAAAACACACGUCCAACUCAGUUUGCCUGUUUUACAGGUUCGCGACGUGCUCGUACGUGGCUUUGGAGACUCCGUGGAGGAGGUCUUAUCAGAGGCACGUCAACAUCUUAAA [F406]
Kd: 0.0012 µM
